The values that follow come from publication PMC4838878.

Experiment [1] has as its target Myc-Lphn3 with a C-terminal Avitag [mouse]. The experiment can be described thus: anti-GFP (mV) pull-down, quantified blot. Conditions: lysate of HEK293 cells co-transfected with FLAG-FLRT2; averaged over 3-4 independent experiments; parent: 1.1; read off a plot.
The target in experiment [2] is HA-Unc5D with a C-terminal Avitag [rat]. As to the kind of experiment: anti-GFP (mV) pull-down, quantified blot. The note with it: lysate of HEK293 cells co-transfected with FLAG-FLRT2; averaged over 3-4 independent experiments; parent: 1; read off a plot.

As for “HA-Unc5D mono-Venus fusion protein (HA-Unc5D-mV) mutant W89N; H91T [rat] / Myc-Lphn3 with a C-terminal Avitag [mouse] chain 1 W44N, chain 1 H46T”, in experiment [1], the response (normalized intensity) is 0.35.
Turning to “Myc-Lphn3-mV mutant R292N; R294T [mouse] / HA-Unc5D with a C-terminal Avitag [rat] chain 1 R273N, chain 1 R275T”, the response (normalized intensity) in experiment [2] was 0.41.
